Consider three molecules from paper PMC6954185 (Nature Communications, 2020).

Data set [1] deals with PTP-δ_D1D2 (human), Trx-His6-tagged (human). The data set is described as follows: ITC; VP-ITC at 25 °C; 50 mM Tris-HCl pH 7.5, 100 mM NaCl, 1 mM EDTA, 1 mM DTT; liprin-α fragments at 200 μM injected into LAR-RPTP fragments at 20 μM; one-site binding model; N-terminal tags kept. Background: Isothermal titration calorimetry measures the heat released or taken up as one component is titrated into another.

Data set [2] addresses PTP-σ_D1D2 (human), Trx-His6-tagged (human). Described as above.
Data set [3] deals with the molecule itself. Nature of the data set: cell-based or functional assay.
In data set [4] the target is T1, liprin-α2_SAM123 (C-terminal SAM repeats of human liprin-α2), Trx-His6-tagged (human, UniProt O75334 866-1193).
T1 construct: liprin-α2, human, the C-terminal three SAM domains (SAM123); source: E. coli Rosetta BL21(DE3), purified (Ni-NTA, Superdex-200); not shown: Trx, N-terminal, kept; His6, N-terminal, kept
Nature of the data set: ITC; VP-ITC at 25 °C; 50 mM Tris-HCl pH 7.5, 100 mM NaCl, 1 mM EDTA, 1 mM DTT; liprin-α fragments at 200 μM injected into LAR-RPTP fragments at 20 μM; one-site binding model; N-terminal tags kept. The settings on record: both partners purified.

Sequence of PTP-δ_D1D2 (human), Trx-His6-tagged (human) (P23468 1357-1912, stated change not applied): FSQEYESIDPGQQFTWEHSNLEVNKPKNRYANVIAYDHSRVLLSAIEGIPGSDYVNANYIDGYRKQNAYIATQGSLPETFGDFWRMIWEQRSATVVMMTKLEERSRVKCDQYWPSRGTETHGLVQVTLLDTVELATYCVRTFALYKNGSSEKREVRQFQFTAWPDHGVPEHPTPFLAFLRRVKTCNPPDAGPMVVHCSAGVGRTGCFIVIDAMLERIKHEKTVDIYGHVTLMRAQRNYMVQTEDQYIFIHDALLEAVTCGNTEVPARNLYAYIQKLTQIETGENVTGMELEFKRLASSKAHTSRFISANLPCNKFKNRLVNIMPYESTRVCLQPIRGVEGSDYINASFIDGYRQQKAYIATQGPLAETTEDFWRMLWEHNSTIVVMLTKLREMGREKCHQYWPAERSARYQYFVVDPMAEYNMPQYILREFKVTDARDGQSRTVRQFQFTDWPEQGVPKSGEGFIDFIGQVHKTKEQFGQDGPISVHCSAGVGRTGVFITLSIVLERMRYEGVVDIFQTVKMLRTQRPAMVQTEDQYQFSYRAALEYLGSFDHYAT
T1 sequence (O75334 866-1193): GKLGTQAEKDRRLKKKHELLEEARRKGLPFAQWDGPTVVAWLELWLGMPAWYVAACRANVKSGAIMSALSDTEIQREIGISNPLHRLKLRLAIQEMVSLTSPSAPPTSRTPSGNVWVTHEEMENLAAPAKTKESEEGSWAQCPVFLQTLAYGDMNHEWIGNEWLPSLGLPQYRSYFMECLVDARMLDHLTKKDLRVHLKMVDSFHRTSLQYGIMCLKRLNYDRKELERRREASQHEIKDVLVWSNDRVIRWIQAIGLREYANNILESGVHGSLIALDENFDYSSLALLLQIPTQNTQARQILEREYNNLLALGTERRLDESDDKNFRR
Sequence of PTP-σ_D1D2 (human), Trx-His6-tagged (human) (Q13332 1393-1948): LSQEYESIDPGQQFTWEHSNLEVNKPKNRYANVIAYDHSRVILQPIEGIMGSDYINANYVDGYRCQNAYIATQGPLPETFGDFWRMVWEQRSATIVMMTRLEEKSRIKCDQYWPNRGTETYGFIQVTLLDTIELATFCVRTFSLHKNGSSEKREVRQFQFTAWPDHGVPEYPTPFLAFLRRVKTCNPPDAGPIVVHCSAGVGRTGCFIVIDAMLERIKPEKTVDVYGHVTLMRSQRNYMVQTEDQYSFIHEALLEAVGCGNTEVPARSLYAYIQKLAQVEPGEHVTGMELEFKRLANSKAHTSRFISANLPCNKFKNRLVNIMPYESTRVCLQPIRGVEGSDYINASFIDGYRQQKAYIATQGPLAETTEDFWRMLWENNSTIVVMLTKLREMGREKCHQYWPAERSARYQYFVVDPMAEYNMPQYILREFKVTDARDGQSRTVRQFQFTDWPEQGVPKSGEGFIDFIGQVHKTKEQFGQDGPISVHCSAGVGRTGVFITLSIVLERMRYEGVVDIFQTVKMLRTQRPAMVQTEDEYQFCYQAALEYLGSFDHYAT

With “α2_SAM123ΔInsertion (liprin-α2_SAM123 with the insertion loop connecting SAM1 and SAM2 deleted) (from UniProt O75334 866-1193) (domain or fragment)”, the Kd is 6.4 µM in data set [1] and 2.4 µM in data set [2].

B1: LAR_D1D2 L1539C/T1593C double-cysteine mutant (domain or fragment, human)
chain: IPITDLADNIERLKANDGLKFSQEYESIDPGQQFTWENSNLEVNKPKNRYANVIAYDHSRVILTSIDGVPGSDYINANYIDGYRKQNAYIATQGPLPETMGDFWRMVWEQRTATVVMMTRLEEKSRVKCDQYWPARGTETCGLIQVTLLDTVELATYTVRTFALHKSGSSEKRELRQFQFMAWPDHGVPEYPTPILAFLRRVKACNPCDAGPMVVHCSAGVGRTGCFIVIDAMLERMKHEKTVDIYGHVTCMRSQRNYMVQCEDQYVFIHEALLEAATCGHTEVPARNLYAHIQKLGQVPPGESVTAMELEFKLLASSKAHTSRFISANLPCNKFKNRLVNIMPYELTRVCLQPIRGVEGSDYINASFLDGYRQQKAYIATQGPLAESTEDFWRMLWEHNSTIIVMLTKLREMGREKCHQYWPAERSARYQYFVVDPMAEYNMPQYILREFKVTDARDGQSRTIRQFQFTDWPEQGVPKTGEGFIDFIGQVHKTKEQFGQDGPITVHCSAGVGRTGVFITLSIVLERMRYEGVVDMFQTVKTLRTQRPAMVQTEDQYQLCYRAALEYLGSFDHYAT
modifications: intermolecular disulfide bridges between the introduced cysteines (without reducing reagents)
For the molecule B1, in data set [3], the “in vitro phosphatase activity of the LAR_D1D2 dimer relative to the monomer fraction, with 2 mM DTT in the reaction buffer” value was around 80% and the “in vitro phosphatase activity of the disulfide-linked LAR_D1D2 dimer relative to the monomeric mutant, reaction buffer without DTT” value was around 40%.

B2: LAR_D2 (D2 domain of human LAR), His6-SUMO-tagged (domain or fragment, UniProt P10586 1620-1907, looked up)
chain: LYAHIQKLGQVPPGESVTAMELEFKLLASSKAHTSRFISANLPCNKFKNRLVNIMPYELTRVCLQPIRGVEGSDYINASFLDGYRQQKAYIATQGPLAESTEDFWRMLWEHNSTIIVMLTKLREMGREKCHQYWPAERSARYQYFVVDPMAEYNMPQYILREFKVTDARDGQSRTIRQFQFTDWPEQGVPKTGEGFIDFIGQVHKTKEQFGQDGPITVHCSAGVGRTGVFITLSIVLERMRYEGVVDMFQTVKTLRTQRPAMVQTEDQYQLCYRAALEYLGSFDHYAT
notes: also called D2 domain alone; source: E. coli Rosetta BL21(DE3), purified (Ni-NTA, Superdex-200); not shown: His6, N-terminal, kept; SUMO, N-terminal, kept
Regarding B2, in data set [4], the Kd worked out at 14 ± 1 µM.

Usually Kd stands for the constant that tells how readily two partners part at equilibrium. A lower Kd goes with higher affinity.
